The record followed here is PMC5503512, “The complex of TRIP-Br1 and XIAP ubiquitinates and degrades multiple adenylyl cyclase isoforms” (eLife, 2017).

Assay [1] concerns the target T1, FLAG-His-tagged AC1-M (AC1 amino acids 236-612) (bovine, UniProt P19754 236-612).
T1 construct: Ends of the tags as in the printed name His-AC1-M-FLAG; also called His-AC1-M-FLAG; M, cytosolic region between the 2 transmembrane domains; not shown: His, N-terminal, kept; FLAG, C-terminal, kept
The assay is described as follows: pull-down; pairwise pull-down, two purified proteins from E. coli, 5 μg of each, FLAG-His-tagged AC1 fragment held on anti-FLAG M2 affinity gel, Co-IP buffer, 500 μL, 2 hr at 4°C; washed with PBS containing 1% Triton X-100; western blot. As to conditions: both partners purified. Background: In western blotting, separated proteins are transferred to a membrane and probed.

Assay [2] addresses T2, His-XIAP purified from E. coli (human, UniProt P98170 1-497).
T2 construct: also called purified XIAP; source: E. coli BL21, purified (Ni-NTA, with 200 μM zinc sulfate)
The assay is described as follows: pull-down; GST, GST-TRIP-Br1 or GST-TRIP-Br1 truncation mutants used to capture His-XIAP purified from E. coli. As to conditions: both partners purified.

T1 sequence (P19754 236-612): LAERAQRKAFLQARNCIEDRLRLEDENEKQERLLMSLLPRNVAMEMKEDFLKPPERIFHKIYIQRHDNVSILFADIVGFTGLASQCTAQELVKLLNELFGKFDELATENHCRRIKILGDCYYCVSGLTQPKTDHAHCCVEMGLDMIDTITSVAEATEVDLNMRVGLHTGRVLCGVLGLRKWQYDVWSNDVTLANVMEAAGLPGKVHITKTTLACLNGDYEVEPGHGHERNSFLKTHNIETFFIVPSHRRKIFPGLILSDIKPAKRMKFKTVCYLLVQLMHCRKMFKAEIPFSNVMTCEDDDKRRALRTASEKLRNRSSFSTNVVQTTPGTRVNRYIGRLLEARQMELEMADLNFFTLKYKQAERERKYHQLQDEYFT
T2 sequence (P98170 whole entry): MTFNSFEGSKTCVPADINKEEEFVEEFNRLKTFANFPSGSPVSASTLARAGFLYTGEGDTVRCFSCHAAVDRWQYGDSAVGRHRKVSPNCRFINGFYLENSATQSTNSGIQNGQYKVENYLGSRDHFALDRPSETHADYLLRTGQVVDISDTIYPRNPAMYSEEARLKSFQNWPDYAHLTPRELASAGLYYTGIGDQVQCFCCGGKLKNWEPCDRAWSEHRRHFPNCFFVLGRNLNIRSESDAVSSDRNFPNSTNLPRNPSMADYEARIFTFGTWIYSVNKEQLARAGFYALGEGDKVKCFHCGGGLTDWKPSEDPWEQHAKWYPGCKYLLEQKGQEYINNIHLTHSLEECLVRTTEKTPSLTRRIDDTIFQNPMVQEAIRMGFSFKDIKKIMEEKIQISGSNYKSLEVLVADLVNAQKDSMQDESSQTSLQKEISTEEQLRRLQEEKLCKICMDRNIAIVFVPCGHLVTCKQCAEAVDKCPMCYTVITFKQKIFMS

B1: purified TRIP-Br1 (His-tagged at both N and C termini) (natural protein, human, UniProt Q9UHV2 1-236, looked up)
chain: MLSKGLKRKREEEEEKEPLAVDSWWLDPGHTAVAQAPPAVASSSLFDLSVLKLHHSLQQSEPDLRHLVLVVNTLRRIQASMAPAAALPPVPSPPAAPSVADNLLASSDAALSASMASLLEDLSHIEGLSQAPQPLADEGPPGRSIGGAAPSLGALDLLGPATGCLLDDGLEGLFEDIDTSMYDNELWAPASEGLKPGPEDGPGKEEAPELDEAELDYLMDVLVGTQALERPPGPGR
notes: TRIP-Br1 (SERTAD1), human, cDNA amplified from Calu-3 cells; The methods call it His-TRIP-Br1; the legends say His-tagged at both termini; also called His-TRIP-Br1; source: E. coli BL21 (codon plus), purified (Ni-NTA); not shown: His, N-terminal, kept; His, C-terminal, kept
As to B1, the binding result in assay [1] is reported as “binds”.

B2: GST-TRIP-Br1 fusion protein (full-length TRIP-Br1 fused with GST) (natural protein, human, UniProt Q9UHV2 1-236, looked up)
chain: MLSKGLKRKREEEEEKEPLAVDSWWLDPGHTAVAQAPPAVASSSLFDLSVLKLHHSLQQSEPDLRHLVLVVNTLRRIQASMAPAAALPPVPSPPAAPSVADNLLASSDAALSASMASLLEDLSHIEGLSQAPQPLADEGPPGRSIGGAAPSLGALDLLGPATGCLLDDGLEGLFEDIDTSMYDNELWAPASEGLKPGPEDGPGKEEAPELDEAELDYLMDVLVGTQALERPPGPGR
notes: also called Sertad1; SEI-1; source: E. coli BL21 codon plus, purified (glutathione-Sepharose)
As to B2, in assay [2], the binding result is given as “binds”.
